Measured values: patent US20240293553A1, “P-SELECTIN INHIBITORS AND USES THEREOF” (Beth Israel Deaconess Medical Center, Inc., priority 2021, published 2024)
Square brackets hold non-standard residues; d marks the D form. Ends that are not written are not given here. F∗ = phenylalanine sulfonate

Molecular target: human P-selectin-Ig chimera (human) (UniProt P16109)
Assay: SPR (Biacore): biotinylated ligand on streptavidin chip, P-selectin-Ig flowed at 0.4-100 nM

Chain of human P-selectin-Ig chimera (human) (P16109 42-771, change not shown): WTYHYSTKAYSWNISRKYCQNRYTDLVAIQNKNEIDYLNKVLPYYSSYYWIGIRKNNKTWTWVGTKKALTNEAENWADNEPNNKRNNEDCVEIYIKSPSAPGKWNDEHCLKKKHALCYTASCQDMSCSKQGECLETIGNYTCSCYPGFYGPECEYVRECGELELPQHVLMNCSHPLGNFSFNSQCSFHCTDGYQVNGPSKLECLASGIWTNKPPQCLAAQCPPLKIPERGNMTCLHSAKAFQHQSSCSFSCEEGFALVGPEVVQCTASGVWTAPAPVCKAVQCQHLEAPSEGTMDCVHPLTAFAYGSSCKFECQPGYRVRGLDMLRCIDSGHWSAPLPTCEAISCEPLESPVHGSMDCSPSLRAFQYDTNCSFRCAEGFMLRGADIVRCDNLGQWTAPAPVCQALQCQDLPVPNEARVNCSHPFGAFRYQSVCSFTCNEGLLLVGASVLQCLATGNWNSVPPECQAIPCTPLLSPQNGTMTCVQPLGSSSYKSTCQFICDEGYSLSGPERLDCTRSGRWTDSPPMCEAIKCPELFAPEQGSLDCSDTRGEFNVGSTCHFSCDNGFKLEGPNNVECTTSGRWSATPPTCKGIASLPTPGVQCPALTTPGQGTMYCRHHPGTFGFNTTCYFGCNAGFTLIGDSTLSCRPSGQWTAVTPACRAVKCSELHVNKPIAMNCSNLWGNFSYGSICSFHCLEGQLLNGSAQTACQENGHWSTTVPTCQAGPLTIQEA

Kd: 27 nM
Binder: KE[F∗]E[F∗]LD[F∗]DFLPET(Neu5Acα2‑3Galβ1‑4(Fucα1-3)GlcNAcβ1‑6(Galβ1-3)GalNAcα)EPL [GSnP-6]
